From paper doi:10.1101/2022.08.12.503734 come the findings set out here.

In this assay the target is GST-Cln3-10A (S. cerevisiae (budding yeast)) (UniProt P13365). Nature of the assay: pull-down.
UniProt P13365, sequence (P13365 whole entry): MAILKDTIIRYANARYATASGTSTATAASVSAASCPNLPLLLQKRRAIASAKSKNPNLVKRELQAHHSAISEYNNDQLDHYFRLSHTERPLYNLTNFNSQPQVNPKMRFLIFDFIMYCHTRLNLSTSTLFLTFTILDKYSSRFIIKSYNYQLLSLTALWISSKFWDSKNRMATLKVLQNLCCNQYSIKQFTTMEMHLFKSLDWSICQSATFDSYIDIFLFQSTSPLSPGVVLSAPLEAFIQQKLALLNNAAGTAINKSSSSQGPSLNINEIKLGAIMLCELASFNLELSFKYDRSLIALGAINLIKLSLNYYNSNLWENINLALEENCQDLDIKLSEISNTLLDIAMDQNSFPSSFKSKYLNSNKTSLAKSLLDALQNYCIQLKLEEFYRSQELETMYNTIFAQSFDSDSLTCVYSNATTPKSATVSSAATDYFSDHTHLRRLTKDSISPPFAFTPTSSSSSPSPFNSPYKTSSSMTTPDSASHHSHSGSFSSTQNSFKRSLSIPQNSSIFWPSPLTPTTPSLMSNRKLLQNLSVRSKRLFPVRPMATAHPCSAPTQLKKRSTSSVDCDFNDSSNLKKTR

Cdk1, sequence (P00546 whole entry): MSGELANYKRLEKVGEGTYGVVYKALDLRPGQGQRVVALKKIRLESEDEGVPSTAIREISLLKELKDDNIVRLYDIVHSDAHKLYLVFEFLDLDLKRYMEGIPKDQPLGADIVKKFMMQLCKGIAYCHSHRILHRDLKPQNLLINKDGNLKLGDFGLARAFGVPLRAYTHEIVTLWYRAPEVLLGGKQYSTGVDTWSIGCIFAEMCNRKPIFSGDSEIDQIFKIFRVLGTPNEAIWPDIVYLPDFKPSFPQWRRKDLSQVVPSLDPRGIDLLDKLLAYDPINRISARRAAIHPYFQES

As to “Cdk1 (from UniProt P00546 1-298) (enzyme)”, the fold lower amount of associated Cdk1 than with GST-Clb2 amounted to 6 fold.
